Experimental data as given in patent US20170081411A1 (published 2017).
Residue numbers refer to the chain shown, from its start. Numbers in names are those of the source.

B1: His-FLAG-FRB (wild-type FRB) (other)
chain: MGHHHHHHHHGSDYKDDDDKGSASRILWHEMWHEGLEEASRLYFGERNVKGMFEVLEPLHAMMERGPQTLKETSFNQAYGRDLMEAQEWCRKYMKSGNVKDLTQAWDLYYHVFRRISKTS
notes: His and FLAG tags are part of the entry; also called wild type Flag-FRB
B2: His-FLAG-FRB T2098L (other)
chain: B1 chain with T103L
notes: The entry already carries the mutation and the tags; also called T2098L (FLAG tagged)
B3: His-FLAG-FRB E2032L (other)
chain: B1 chain with E37L
notes: The entry already carries the mutation and the tags; also called E2032L (FLAG tagged)
B4: His-FLAG-FRB E2032I (other)
chain: B1 chain with E37I
notes: The entry already carries the mutation and the tags; also called E2032I (FLAG tagged)

Tests used:
[1] = biological target: T1, His-Avidin-FKBP (wild-type FKBP) (biotinylated (position not given)); test: AlphaLISA direct format: 30 nM biotinylated FKBP + 30 nM FLAG-FRB, everolimus titrated 1:3 from 600 nM (EC50 is of the everolimus titration)
T1 construct: His tag and biotin acceptor tag are part of the entry; also called biotinylated wild-type FKBP; biotinylated FKBP
T1 sequence (chain, as listed by the source limits assumed): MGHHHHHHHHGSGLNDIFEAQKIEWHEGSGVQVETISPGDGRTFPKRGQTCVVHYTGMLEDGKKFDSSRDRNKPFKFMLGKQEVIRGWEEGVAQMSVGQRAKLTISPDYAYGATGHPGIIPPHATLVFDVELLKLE
Description: (§1) FRB mutations were also ranked in an alternative assay format. […] All dilutions were made in 1× AlphaLISA Immunoassay buffer (PerkinElmer). Anti-Flag acceptor beads (PerkinElmer) were added at 10 ug/ml final concentration and incubated for one hour at room temperature. Streptavidin donor beads (PerkinElmer), were then added at a final concentration of 40 ug/ml and the plate was protected from light and incubated for 30 minutes at room temperature. The plate was then read on the PerkinElmer EnVision Multiplate reader equipped with the Alpha Module using excitation of 680 nm and a 570 nm Emission filter.

[2] = biological target: T1, His-Avidin-FKBP (wild-type FKBP); test: AlphaLISA direct format, everolimus titrated, EC50 against wild type FRB
Description: as §1

Binder	EC50 [1] [nM]	fold improved against wild type FRB [2] [fold]
B1	3.9	
B2	1.44	3
B3	2.15	
B4	2.46	
